Reference: patent publication US20140072553A1 (MORPHOTEK, published 2014)
Like-named read-outs stand apart in the source and are kept apart here.

T1: Staphylococcus enterotoxin B (Staphylococcus aureus, UniProt P01552 28-266)
T1 sequence: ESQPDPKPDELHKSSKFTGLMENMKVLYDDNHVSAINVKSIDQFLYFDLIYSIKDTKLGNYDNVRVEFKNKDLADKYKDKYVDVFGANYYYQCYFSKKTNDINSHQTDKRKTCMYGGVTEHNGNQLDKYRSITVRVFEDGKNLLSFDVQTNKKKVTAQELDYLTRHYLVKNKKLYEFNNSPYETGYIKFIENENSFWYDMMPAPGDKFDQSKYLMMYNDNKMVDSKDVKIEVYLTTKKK


What was measured:
[1] = molecular target: T1, Staphylococcus enterotoxin B
[2] = molecular target: T1, Staphylococcus enterotoxin B; assay: cell-based or functional assay
[3] = molecular target: T1, Staphylococcus enterotoxin B; assay: cell-based or functional assay; remark: listed apart in the source

Row | Binder | Kd [1] | EC50 of inhibition of SEB-induced IFN-γ production by human PBMC [2] | EC50 of inhibition of SEB-induced IFN-γ production by human PBMC [3] | EC50 of inhibition of SEB-induced TNF-α production by human PBMC [3]
1 | human anti-SEB monoclonal antibody 79G9 (antibody, V domains shown) VH: EVQLEESGAGLLKPSETLSLTCAVYGGSFSGYYWSWIRQAPGKGLEWIGEIDHSGTTNYNPSLKSRVTISVETSKNQFSLRLSSVTAADSAVYYCASSGYCSHGLCPQEDWGQGTLVTVSS VL: DIELTQSPSFLSASVGDRVAITCRASQGISNYLAWYQQKPGKAPKLLIYAAFVLQSGVPSRFSGSGSGTEFTLTISNLQPEDFATYYCQQLNSYPRAFGPGTKVDIKR | 25 nM | 0.125 µg/mL | 158 ng/mL | 217 ng/mL
2 | human anti-SEB monoclonal antibody 100C9 (antibody, V domains shown) VH: EVQLVESGGGLVQPGGSLRLSCSASGFTFSSYWMSWVRQAPGKGLEWVANIIQDGSEKYYADSVKGRLTISRDNAKNSLYLQMNSLRVDDTAVYYCARGYEGCSATRCYLYYFDYWGPGTLVTVSS VL: SYVLTQPPSVSVSPGQTARITCSGDALPKQYTYWYQQKPGQAPVVVIYKDSERPSGIPERFSGSSSGTTVTVTISGVQAEDEADYYCQSADSSGTSLVFGGGTKLTVLG | 9.75 nM | 0.0766 µg/mL | – | –
